Data on one substance can be found in article PMC5965902.

The target in this data set is Cys128 (UniProt position 128, FIDQHCSLMKV). Put plainly: chemical modification (DTNB/Ellman labelling kinetics followed by UV-vis). To be noted: room temperature; 150 mM NaCl; 50 mM citric acid, 50 mM HEPES, 50 mM Bicine, pH adjusted with NaOH or HCl; Free (reduced) thiol form of RitR, 5 μM protein with 20 μM DTNB, no DNA.

By pKa is commonly meant the negative logarithm of the acid dissociation constant. A lower pKa goes with a stronger acid or weaker base. On to “RitR (Repressor of iron transport Regulator), orphan two-component-like response regulator (Streptococcus pneumoniae (strain R800, R6/D39 derivative))”, for which the pKa is listed as 6.85.
